What is called Kd is the constant that tells how readily two partners part at equilibrium.

Where two headings read alike, the source gives them in different places.

What all share (experiment): fluorescence polarization
On the technique in general: Fluorescence polarisation rises when a labelled molecule tumbles more slowly, as on binding a larger partner.

Series [1] deals with T1, dP75 PWWP (Drosophila melanogaster, UniProt Q9VAA9 9-90).
T1 sequence: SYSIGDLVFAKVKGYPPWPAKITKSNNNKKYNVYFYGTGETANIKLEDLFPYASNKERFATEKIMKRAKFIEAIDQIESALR

Another series addresses T2, dP75 PWWP E48A (Drosophila melanogaster, UniProt Q9VAA9 9-90, E48A).
T2 sequence: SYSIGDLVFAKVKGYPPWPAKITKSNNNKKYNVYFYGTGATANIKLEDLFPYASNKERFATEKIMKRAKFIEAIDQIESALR

Another series deals with LEDGF/p75 PWWP (Homo sapiens, UniProt O75475 4-89).
LEDGF/p75 PWWP, sequence (O75475 4-89): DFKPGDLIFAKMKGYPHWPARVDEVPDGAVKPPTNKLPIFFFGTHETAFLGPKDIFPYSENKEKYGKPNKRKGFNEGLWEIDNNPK
A further series addresses T3, dP75 PWWP K38A (Drosophila melanogaster, UniProt Q9VAA9 9-90, K38A).
T3 sequence: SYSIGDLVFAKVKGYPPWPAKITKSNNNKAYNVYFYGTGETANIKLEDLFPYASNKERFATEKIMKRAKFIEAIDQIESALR

In another series the target is T4, dP75 PWWP F43A (Drosophila melanogaster, UniProt Q9VAA9 9-90, F43A).
T4 sequence: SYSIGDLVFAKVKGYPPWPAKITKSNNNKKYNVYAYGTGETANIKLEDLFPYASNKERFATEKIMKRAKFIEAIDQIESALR

The next series deals with T5, dP75 PWWP K53A (Drosophila melanogaster, UniProt Q9VAA9 9-90, K53A).
T5 sequence: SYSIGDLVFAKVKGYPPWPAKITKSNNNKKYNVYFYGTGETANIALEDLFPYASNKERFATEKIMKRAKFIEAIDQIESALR

The target of the next series is T6, dP75 PWWP Y23A (Drosophila melanogaster, UniProt Q9VAA9 9-90, Y23A).
T6 sequence: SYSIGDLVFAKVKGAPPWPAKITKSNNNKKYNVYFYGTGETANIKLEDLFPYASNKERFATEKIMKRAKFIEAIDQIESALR

Series [2] has as its target T1, dP75 PWWP. The source holds these as a separate data set.
For series [3], the target named is T1, dP75 PWWP. This is another data set of the same source.
Series [4] addresses T1, dP75 PWWP. The source holds these as a separate data set.

B1: 12 bp poly(G:C) (dsDNA)
DNA 1: GGGGGGGGGGGG
DNA 2: CCCCCCCCCCCC
In the case of B1, the binding result with dP75 PWWP [1] was “no binding”.

B2: FAM-12T (polyT) (ssDNA)
DNA: TTTTTTTTTTTT
Regarding B2, the Kd with dP75 PWWP E48A came out at 64.2 ± 2.8 µM; with dP75 PWWP K38A it was 60.9 ± 0.9 µM; with dP75 PWWP K53A it was 109 ± 2.9 µM; with dP75 PWWP [1], 24.2 ± 1.1 µM. Moreover, the binding result with LEDGF/p75 PWWP, with dP75 PWWP F43A and in the series with dP75 PWWP Y23A was “no binding” in each case.

B3: 12 bp poly(A:T) (dsDNA)
DNA 1: TTTTTTTTTTTT
DNA 2: AAAAAAAAAAAA
B3 returned a Kd in the series with dP75 PWWP [2] of 18.2 ± 1.17 µM.

B4: FAM-12A (polyA) (ssDNA)
DNA: AAAAAAAAAAAA
Consider B4, for which the binding result with dP75 PWWP [3] was “no binding”.

B5: 20 bp random (dsDNA)
DNA 1: CGATCTGCGTCAGCTGTAGC
DNA 2: GCTACAGCTGACGCAGATCG
For B5, the binding result with dP75 PWWP [1] was “no binding”.

B6: FAM-12G (polyG) (ssDNA)
DNA: GGGGGGGGGGGG
B6: the binding result with dP75 PWWP [4] is given as “no binding”.

B7: FAM-12C (polyC) (ssDNA)
DNA: CCCCCCCCCCCC
For the molecule B7, binding in the series with dP75 PWWP [1] was put at a Kd of 151 ± 38.9 µM.

For the origin of these results see article PMC11910589.
